B1: human SIRT3-HA (protein)
chain: MAFWGWRAAAALRLWGRVVERVEAGGGVGPFQACGCRLVLGGRDDVSAGLRGSHGARGEPLDPARPLQRPPRPEVPRAFRRQPRAAAPSFFFSSIKGGRRSISFSVGASSVVGSGGSSDKGKLSLQDVAELIRARACQRVVVMVGAGISTPSGIPDFRSPGSGLYSNLQQYDLPYPEAIFELPFFFHNPKPFFTLAKELYPGNYKPNVTHYFLRLLHDKGLLLRLYTQNIDGLERVSGIPASKLVEAHGTFASATCTVCQRPFPGEDIRADVMADRVPRCPVCTGVVKPDIVFFGEPLPQRFLLHVVDFPMADLLLILGTSLEVEPFASLTEAVRSSVPRLLINRDLVGPLAWHPRSRDVAQLGDVVHGVESLVELLGWTEEMRDLVQRETGKLDGPDK
B2: SIRT3 (protein)
chain: B1 chain

Key:
[1] = molecular target: mouse cytochrome c with a C-terminal Flag tag
mouse cytochrome c with a C-terminal Flag tag, sequence (chain, as listed by the source): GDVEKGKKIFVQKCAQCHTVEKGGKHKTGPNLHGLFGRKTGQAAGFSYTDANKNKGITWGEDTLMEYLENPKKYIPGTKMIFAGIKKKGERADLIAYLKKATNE

[2] = molecular target: endogenous cytochrome c

Protein	acetylation of residues K40 and K74 of cytochrome c (mass spectrometry) [1]	deacetylation assay (Western blot) [2]
B1	when hSIRT3 was cotransfected with cytochrome c, acetylation of residues K40 and K74 of cytochrome c was no longer detected	
B2		SIRT3 can deacetylate endogenous cytochrome c
